Reference: paper PMC5954120

Biological target: GST-Pmp23 (S. pneumoniae) (UniProt Q8DPY9)
Assay: MST; 100 nM GST-Pmp23 labeled with NT-647, titrated with PBP2x (7 nM to 235 μM) or BSA (5 nM to 360 μM); 25 °C; 50 mM Tris-HCl, 150 mM NaCl, 10 mM MgCl2, 0.05% Tween-20; triplicates

Sequence of UniProt Q8DPY9 (Q8DPY9 whole entry): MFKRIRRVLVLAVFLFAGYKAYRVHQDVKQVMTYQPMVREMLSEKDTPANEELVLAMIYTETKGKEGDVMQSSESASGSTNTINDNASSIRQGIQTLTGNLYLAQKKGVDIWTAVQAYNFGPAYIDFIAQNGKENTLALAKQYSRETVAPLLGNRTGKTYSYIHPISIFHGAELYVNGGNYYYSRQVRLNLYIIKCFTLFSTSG

- Kd: 9 µM
Substance: extracellular domain of PBP2x (domain or fragment)
